# Source: patent publication US8188225B2, “Inorganic phosphate assays” (Medical Research Council, priority 2005, dated 2012)
# Like-named read-outs stand apart in the source and are kept apart here.
# What was measured:
# [1] = Fluorescence change of labelled PBP on Pi binding; settings: for fluorescence increase with Pi: Pi-bound vs Pi-free, typical product, 10 mM PIPES pH 7.0
# Description: Fluorescence spectra were obtained under the same conditions. Excitation was at 555 nm. The fluorescence signals were normalised to 100%, representing the maximum intensity in the presence of Pi.
# [2] = Fluorescence titration of labelled PBP with Pi (binding capacity); settings: 20° C.
# Experimental: This fluorescence represents the value when approximately Pi-free. The lines shown in FIG. 3 are a best fit to data from 0 to 4 μM added Pi, and a horizontal line.
# [3] = Stopped-flow association kinetics of Pi with rhodamine-PBP; format: binding
# Description: A stopped-flow apparatus was used to determine association and dissociation kinetics of Pi from rhodamine-PBP.
# A representative set of fluorescence traces is shown in FIG. 4A, all normalized to 100% for the initial intensity, but offset by 15% from each other. As the concentration of Pi and the rate increase, a significant proportion of the fluorescence trace is lost in the dead time of the stopped-flow instrument, causing an apparent decrease in intensity.
# It is apparent that the rate reaches a limiting high value. This can be interpreted in terms of a two-step mechanism, binding itself (step 1), then a conformation change (step 2):
# The fluorescence change occurs in step 2 and is likely to be concomitant with the closure of the binding cleft. It is this process that limits the overall rate at high Pi concentration. The data in FIG. 4B fitted to a hyperbola give 1/K1=2.2 μM and k+2+k−2=267 s^−1 (at 10° C.).
# [4] = Stopped-flow dissociation kinetics of Pi from rhodamine-PBP; settings: 10° C.
# Experimental: Absorbance spectra were obtained using a Beckman DU640 spectrophotometer. Fluorescence measurements were obtained on a Perkin Elmer LS50B or Cary Eclipse fluorimeter with xenon lamp. Stopped flow experiments were carried out on a HiTech SF61MX apparatus, with a mercury-xenon lamp and HiTech IS-2 software, a monochromator and 4 mm slits on the excitation light (550 nm for rhodamine) and a 570 nm cut-off filter on the emission. The stated concentrations are those in the mixing chamber, unless stated otherwise.
# 0.25 unit mL^−1 PNPase and 100 μM 7-methylguanosine were present with the wild-type PBP to ensure that it was free of Pi prior to mixing.
# [5] = similar titration, reference 25; cited from earlier work
molecule,measurement,setting,value
"rhodamine-PBP: E. coli PBP Ala17Cys/Ala197Cys (17/197) mutant doubly labelled with 6-IATR (conjugate, UniProt P0AG82 26-346, looked up, variant A17C A197C, doubly labelled with 6-IATR rhodamine, E. coli PBP Ala17Cys/Ala197Cys (17/197) mutant doubly labelled with 6-IATR) Phosphate-binding protein PstS: EASLTGAGATFPAPVYCKWADTYQKETGNKVNYQGIGSSGGVKQIIANTVDFGASDAPLSDEKLAQEGLFQFPTVIGGVVLAVNIPGLKSGELVLDGKTLGDIYLGKIKKWDDEAIAKLNPGLKLPSQNIAVVRRADGSGTSFVFTSYLAKVNEEWKNNVGTGSTVKWPIGLGGKGNDGIAAFVQRLPGAIGYVEYCYAKQNNLAYTKLISADGKPVSPTEENFANAAKGADWSKTFAQDLTNQKGEDAWPITSTTFILIHKDQKKPEQGTEVLKFFDWAYKTGAKQANDLDYASLPDSVVEQVRAAWKTNIKDSSGKPLY",fluorescence increase with Pi,[1],18 fold
same,"fluorescence increase with Pi, maximum / best batch","[1]; emission at 578 nm (λmax), depends on purity of doubly labelled species, listed as A17C-A197C",up to 30 fold
same,binding capacity for Pi,[2],~100%
same,k+2+k−2 (conformation change step 2),"[3]; hyperbola fit, 10° C., 10 mM PIPES pH 7.0",267 s⁻¹
same,Kd,"[3]; hyperbola fit, 10° C., 10 mM PIPES pH 7.0, read-out: 1/K1 (binding step 1)",2.2 µM
same,association kinetics compared with MDCC-PBP,[3]; rhodamine-PBP at 10° C. vs MDCC-PBP at 5° C.,slower than that found with MDCC-PBP at 5 °C
same,Pi dissociation rate,"[4]; best fit exponential, excess 10 μM wild-type PBP",6.6 s⁻¹
same,Kd,"[4]; read-out: overall dissociation constant k−2/k+2K1, from association and dissociation kinetics",0.06 µM
"MDCC-PBP: prior-art MDCC-labelled PBP, label linked via a chiral centre on a succinimide (conjugate, UniProt P0AG82 26-346, looked up, MDCC fluorophore label, prior-art MDCC-labelled PBP, label linked via a chiral centre on a succinimide) Phosphate-binding protein PstS: EASLTGAGATFPAPVYAKWADTYQKETGNKVNYQGIGSSGGVKQIIANTVDFGASDAPLSDEKLAQEGLFQFPTVIGGVVLAVNIPGLKSGELVLDGKTLGDIYLGKIKKWDDEAIAKLNPGLKLPSQNIAVVRRADGSGTSFVFTSYLAKVNEEWKNNVGTGSTVKWPIGLGGKGNDGIAAFVQRLPGAIGYVEYAYAKQNNLAYTKLISADGKPVSPTEENFANAAKGADWSKTFAQDLTNQKGEDAWPITSTTFILIHKDQKKPEQGTEVLKFFDWAYKTGAKQANDLDYASLPDSVVEQVRAAWKTNIKDSSGKPLY",binding capacity for Pi,[5],75%
"RRC2M: here the product of A17C-A197C mutant PBP labelled with the maleimide Rhodamine Red C2 (conjugate, UniProt P0AG82 26-346, looked up, variant A17C A197C, Rhodamine Red C2 maleimide labels) Phosphate-binding protein PstS: EASLTGAGATFPAPVYCKWADTYQKETGNKVNYQGIGSSGGVKQIIANTVDFGASDAPLSDEKLAQEGLFQFPTVIGGVVLAVNIPGLKSGELVLDGKTLGDIYLGKIKKWDDEAIAKLNPGLKLPSQNIAVVRRADGSGTSFVFTSYLAKVNEEWKNNVGTGSTVKWPIGLGGKGNDGIAAFVQRLPGAIGYVEYCYAKQNNLAYTKLISADGKPVSPTEENFANAAKGADWSKTFAQDLTNQKGEDAWPITSTTFILIHKDQKKPEQGTEVLKFFDWAYKTGAKQANDLDYASLPDSVVEQVRAAWKTNIKDSSGKPLY",fluorescence increase with Pi,[1],little fluorescence change
"K229C-E302C: E. coli PBP Lys-229/Glu-302 to Cys double mutant, doubly labelled with 6-IATR (conjugate, UniProt P0AG82 26-346, looked up, variant K229C E302C, 6-IATR labels, E. coli PBP Lys-229/Glu-302 to Cys double mutant, doubly labelled with 6-IATR) Phosphate-binding protein PstS: EASLTGAGATFPAPVYAKWADTYQKETGNKVNYQGIGSSGGVKQIIANTVDFGASDAPLSDEKLAQEGLFQFPTVIGGVVLAVNIPGLKSGELVLDGKTLGDIYLGKIKKWDDEAIAKLNPGLKLPSQNIAVVRRADGSGTSFVFTSYLAKVNEEWKNNVGTGSTVKWPIGLGGKGNDGIAAFVQRLPGAIGYVEYAYAKQNNLAYTKLISADGKPVSPTEENFANAACGADWSKTFAQDLTNQKGEDAWPITSTTFILIHKDQKKPEQGTEVLKFFDWAYKTGAKQANDLDYASLPDSVVCQVRAAWKTNIKDSSGKPLY",binding capacity for Pi,[2],~100%
